From patent publication US20210054097A1 (Novo Nordisk, published 2021)
Ends that are not written are not given here.

T1: FX activation peptide 12-mer SSGEAPDSITWK (human)
T1 peptide: SSGEAPDSITWK-biotin

T2: FX activation peptide 12-mer DLLDFNQTQPER (human)
T2 peptide: DLLDFNQTQPER-biotin

T3: FX activation peptide 12-mer ATSSSGEAPDSI (human)
T3 peptide: ATSSSGEAPDSI-biotin

T4: FX activation peptide 12-mer DAADLDPTENPF (human)
T4 peptide: DAADLDPTENPF-biotin

T5: FX activation peptide 12-mer WKPYDAADLDPT (human)
T5 peptide: WKPYDAADLDPT-biotin

T6: FX activation peptide 12-mer SSSGEAPDSITW (human)
T6 peptide: SSSGEAPDSITW-biotin

T7: FX activation peptide 12-mer GEAPDSITWKPY (human)
T7 peptide: GEAPDSITWKPY-biotin

T8: FX activation peptide 12-mer TQPERGDNNLTR (human)
T8 peptide: TQPERGDNNLTR-biotin

T9: FX activation peptide 12-mer AQATSSSGEAPD (human)
T9 peptide: AQATSSSGEAPD-biotin

T10: FX activation peptide 12-mer DSITWKPYDAAD (human)
T10 peptide: DSITWKPYDAAD-biotin

T11: FX activation peptide 12-mer TWKPYDAADLDP (human)
T11 peptide: TWKPYDAADLDP-biotin

T12: FX activation peptide 12-mer QATSSSGEAPDS (human)
T12 peptide: QATSSSGEAPDS-biotin

T13: FX activation peptide 12-mer DFNQTQPERGDN (human)
T13 peptide: DFNQTQPERGDN-biotin

T14: FX activation peptide 12-mer SITWKPYDAADL (human)
T14 peptide: SITWKPYDAADL-biotin

T15: FX activation peptide 12-mer AADLDPTENPFD (human)
T15 peptide: AADLDPTENPFD-biotin

T16: FX activation peptide 12-mer PYDAADLDPTEN (human)
T16 peptide: PYDAADLDPTEN-biotin

T17: FX activation peptide 12-mer NQTQPERGDNNL (human)
T17 peptide: NQTQPERGDNNL-biotin

T18: FX activation peptide 12-mer LDFNQTQPERGD (human)
T18 peptide: LDFNQTQPERGD-biotin

T19: FX activation peptide 12-mer EAPDSITWKPYD (human)
T19 peptide: EAPDSITWKPYD-biotin

T20: FX activation peptide 12-mer KPYDAADLDPTE (human)
T20 peptide: KPYDAADLDPTE-biotin

T21: FX activation peptide 12-mer DLDPTENPFDLL (human)
T21 peptide: DLDPTENPFDLL-biotin

T22: FX activation peptide 12-mer LDPTENPFDLLD (human)
T22 peptide: LDPTENPFDLLD-biotin

T23: FX activation peptide 12-mer FNQTQPERGDNN (human)
T23 peptide: FNQTQPERGDNN-biotin

T24: FX activation peptide 12-mer YDAADLDPTENP (human)
T24 peptide: YDAADLDPTENP-biotin

T25: FX activation peptide 12-mer SGEAPDSITWKP (human)
T25 peptide: SGEAPDSITWKP-biotin

T26: FX activation peptide 12-mer APDSITWKPYDA (human)
T26 peptide: APDSITWKPYDA-biotin

T27: FX activation peptide 12-mer QTQPERGDNNLT (human)
T27 peptide: QTQPERGDNNLT-biotin

T28: FX activation peptide 12-mer ITWKPYDAADLD (human)
T28 peptide: ITWKPYDAADLD-biotin

T29: FX activation peptide 12-mer TSSSGEAPDSIT (human)
T29 peptide: TSSSGEAPDSIT-biotin

T30: FX activation peptide 12-mer FDLLDFNQTQPE (human)
T30 peptide: FDLLDFNQTQPE-biotin

T31: FX activation peptide 12-mer TENPFDLLDFNQ (human)
T31 peptide: TENPFDLLDFNQ-biotin

T32: FX activation peptide 12-mer NPFDLLDFNQTQ (human)
T32 peptide: NPFDLLDFNQTQ-biotin

T33: FX activation peptide 12-mer ENPFDLLDFNQT (human)
T33 peptide: ENPFDLLDFNQT-biotin


Key:
Assay in all cases: peptide ELISA
[1] = biological target: T1, FX activation peptide 12-mer …
Experimental: (§1) The peptides were C-terminally conjugated to biotin and 50 μL of 1 μg/mL peptide solution was used for immobilization in discrete wells of the microtiter plate which was pre-coated with 1 μg/mL streptavidin. Each well was washed with washing buffer (10 mM Tris, 150 mM NaCl, 2.5 mM CaCl₂, 0.05% Tween 20, pH 8.60) followed by addition of 50 μL of 2 μg/mL FLAG-tagged anti-FX Nanobody® or IgG antibody to be tested. After 1 hour non-bound Nanobody®/antibody was washed off using washing buffer.
(§2) Bound anti-FX activation peptide ligand was detected by first binding a HRP-labelled secondary antibody (for FLAG-tagged Nanobodies: Anti-FLAG mAb M2-Peroxidase (HRP) (Sigma Aldrich, US), for antibody: Fcγ Fragment Specific Peroxidase AffiniPure F(ab′)₂ Fragment Goat Anti-Human IgG (Jackson ImmunoResearch Laboratories, Inc., US), or Peroxidase AffiniPure Goat Anti-Mouse IgG (Jackson ImmunoResearch Laboratories, Inc., US)) for 1 hour, and then adding 100 μL TMB-1 ELISA substrate (Kem-En-Tec Diagnostics, Denmark).

[2] = biological target: T2, FX activation peptide 12-mer …
Experimental: as §1, §2

[3] = biological target: T3, FX activation peptide 12-mer …
Experimental: as §1, §2

[4] = biological target: T4, FX activation peptide 12-mer …
Experimental: as §1, §2

[5] = biological target: T5, FX activation peptide 12-mer …
Experimental: as §1, §2

[6] = biological target: T6, FX activation peptide 12-mer …
Experimental: as §1, §2

[7] = biological target: T7, FX activation peptide 12-mer …
Experimental: as §1, §2

[8] = biological target: T8, FX activation peptide 12-mer …
Experimental: as §1, §2

[9] = biological target: T9, FX activation peptide 12-mer …
Experimental: as §1, §2

[10] = biological target: T10, FX activation peptide 12-mer …
Experimental: as §1, §2

[11] = biological target: T11, FX activation peptide 12-mer …
Experimental: as §1, §2

[12] = biological target: T12, FX activation peptide 12-mer …
Experimental: as §1, §2

[13] = biological target: T13, FX activation peptide 12-mer …
Experimental: as §1, §2

[14] = biological target: T14, FX activation peptide 12-mer …
Experimental: as §1, §2

[15] = biological target: T15, FX activation peptide 12-mer …
Experimental: as §1, §2

[16] = biological target: T16, FX activation peptide 12-mer …
Experimental: as §1, §2

[17] = biological target: T17, FX activation peptide 12-mer …
Experimental: as §1, §2

[18] = biological target: T18, FX activation peptide 12-mer …
Experimental: as §1, §2

[19] = biological target: T19, FX activation peptide 12-mer …
Experimental: as §1, §2

[20] = biological target: T20, FX activation peptide 12-mer …
Experimental: as §1, §2

[21] = biological target: T21, FX activation peptide 12-mer …
Experimental: as §1, §2

[22] = biological target: T22, FX activation peptide 12-mer …
Experimental: as §1, §2

[23] = biological target: T23, FX activation peptide 12-mer …
Experimental: as §1, §2

[24] = biological target: T24, FX activation peptide 12-mer …
Experimental: as §1, §2

[25] = biological target: T25, FX activation peptide 12-mer …
Experimental: as §1, §2

[26] = biological target: T26, FX activation peptide 12-mer …
Experimental: as §1, §2

[27] = biological target: T27, FX activation peptide 12-mer …
Experimental: as §1, §2

[28] = biological target: T28, FX activation peptide 12-mer …
Experimental: as §1, §2

[29] = biological target: T29, FX activation peptide 12-mer …
Experimental: as §1, §2

[30] = biological target: T30, FX activation peptide 12-mer …
Experimental: as §1, §2

[31] = biological target: T31, FX activation peptide 12-mer …
Experimental: as §1, §2

[32] = biological target: T32, FX activation peptide 12-mer …
Experimental: as §1, §2

[33] = biological target: T33, FX activation peptide 12-mer …
Experimental: as §1, §2

Binder | ELISA signal relative to background [1] | ELISA signal relative to background [2] | ELISA signal relative to background [3] | ELISA signal relative to background [4] | ELISA signal relative to background [5] | ELISA signal relative to background [6] | ELISA signal relative to background [7] | ELISA signal relative to background [8] | ELISA signal relative to background [9] | ELISA signal relative to background [10] | ELISA signal relative to background [11] | ELISA signal relative to background [12] | ELISA signal relative to background [13] | ELISA signal relative to background [14] | ELISA signal relative to background [15] | ELISA signal relative to background [16] | ELISA signal relative to background [17] | ELISA signal relative to background [18] | ELISA signal relative to background [19] | ELISA signal relative to background [20] | other results
Nb 701C06 (VHH, monovalent Nanobody; not shown: C-terminal FLAG3 and HIS6 tag) VHH: EVQLVESGGGVVQPGGSLRLSCAASGRTFSTYAMGWFRQAPGKEREFVAAISRRGGRTYYADSVKGRFTISRDNSKNTVYLQMNSLRPEDTALYYCAADATARDGLLDYWGQGTLVTVSS | 0.89 | 1.13 | 0.91 | 0.85 | 0.99 | 0.9 | 0.9 | 0.97 | 0.91 | 0.93 | 1 | 0.94 | 0.87 | 0.94 | 0.82 | 0.82 | 0.85 | 0.93 | 0.89 | 0.9 | ELISA signal relative to background [21]: 0.88; ELISA signal relative to background [22]: 0.94; ELISA signal relative to background [23]: 0.88; ELISA signal relative to background [24]: 0.85; ELISA signal relative to background [25]: 0.88; ELISA signal relative to background [26]: 0.96; ELISA signal relative to background [27]: 0.93; ELISA signal relative to background [28]: 1.03; ELISA signal relative to background [29]: 0.87
Nb 701D07 (VHH, monovalent Nanobody; not shown: C-terminal FLAG3 and HIS6 tag) VHH: EVQLVESGGGVVQPGGSLRLSCAASGGTLSRYAMGWFRQAPGKEREFVAAITRRGSRTYYADSVKGRFTISRDNSKNTVYLQMNSLRPEDTALYYCAADLAPGDYALDYWGQGTLVTVSS | 0.74 | 0.81 | 0.86 | 0.7 | 0.85 | 0.73 | 0.8 | 0.88 | 0.89 | 0.89 | 0.91 | 0.81 | 0.75 | 1.04 | 0.69 | 0.73 | 0.87 | 0.79 | 0.76 | 0.73 | ELISA signal relative to background [30]: 0.99; ELISA signal relative to background [21]: 0.74; ELISA signal relative to background [22]: 0.8; ELISA signal relative to background [23]: 0.82; ELISA signal relative to background [24]: 0.75; ELISA signal relative to background [25]: 0.78; ELISA signal relative to background [26]: 0.9; ELISA signal relative to background [27]: 0.79; ELISA signal relative to background [28]: 0.89; ELISA signal relative to background [29]: 0.75
Nb 729A04 (VHH, monovalent Nanobody; not shown: C-terminal FLAG3 and HIS6 tag) VHH: EVQLVESGGGVVQPGGSLRLSCAASGFTFSDYAMSWVRQAPGKGLEWVSGITSGGGRTYYADSVKGRFTISRDNSKNTLYLQMNSLRPEDTALYYCAAVRTLGLRGSYDYWGQGTLVTVSS | 0.96 | 1.12 | 1.24 | 1.1 | 1.2 | 1.24 | 1.05 | 1.09 | 1.08 | 1.05 | 0.99 | 1.08 | 0.97 | 1.13 | 1.05 | 1.06 | 1.13 | 0.98 | 1.01 | 1.33 | ELISA signal relative to background [31]: 9.12; ELISA signal relative to background [21]: 1.06; ELISA signal relative to background [23]: 1.05; ELISA signal relative to background [32]: 8.27; ELISA signal relative to background [24]: 1.06; ELISA signal relative to background [25]: 0.98; ELISA signal relative to background [26]: 1.04; ELISA signal relative to background [27]: 1.11; ELISA signal relative to background [28]: 1.28; ELISA signal relative to background [33]: 17.8; ELISA signal relative to background [29]: 1.12
Nb 729C08 (VHH, monovalent Nanobody; also called Nb 729008; not shown: C-terminal FLAG3 and HIS6 tag) VHH: EVQLVESGGGVVQPGGSLRLSCAASGFTFSDYAMSWVRQAPGKGLEWVSGITGGGRTYYADSVKGRFTISRDNSKNTLYLQMNSLRPEDTALYYCAAAILTRTRRTYDYWGQGTLVTVSS | 1.06 | 1.22 | 1.13 | 1.18 | 1.08 | 1.1 | 1.15 | 1.37 | 1.17 | 1.09 | 1.17 | 1.12 | 1.1 | 1.11 | 1.17 | 1.08 | 1.09 | 1.12 | 1.11 | 1.1 | ELISA signal relative to background [31]: 3.14; ELISA signal relative to background [30]: 1.15; ELISA signal relative to background [21]: 1.21; ELISA signal relative to background [23]: 1.08; ELISA signal relative to background [32]: 3.41; ELISA signal relative to background [24]: 1.09; ELISA signal relative to background [25]: 1.07; ELISA signal relative to background [26]: 1.09; ELISA signal relative to background [27]: 1.04; ELISA signal relative to background [28]: 1.06; ELISA signal relative to background [33]: 8.06; ELISA signal relative to background [29]: 1.06
